Assays:
[1] = target: CB1R-5M-PGS (Homo sapiens, UniProt P21554); test: Analytical gel filtration test of CNB36 binding to CB1R-5M-PGS; settings: purified CNB36
Description: For binding tests, 10 μM purified CNB36 was incubated for 1 hr with purified PGS or CB1R-5M-PGS (5 μM). The complex was then centrifuged at 21,130 × g for 15 min at 4 °C to remove large aggregates, and the supernatant was run on an analytical-grade Superdex 200 10/300 Increase column at 0.5 mL/min in CB1 gel filtration buffer. The presence or absence of binding of CNB36 to CB1R-5M-PGS or to PGS alone was assessed by SDS-PAGE analysis of peak fractions.

[2] = tested on: CB1R-5M-PGS over GPR55-PGS; test: Analytical flow cytometry of yeast-displayed CNB36, CB1R-5M-PGS versus GPR55-PGS; assay type: binding
Description: Supplementary Figure 1. (A-H) Sel ecti on and bi ochemi cal characteri zati on of CNB36
(A) Overall strategy for nanobody selection and sequence of CNB36.
(B) FA C S sort of a yeast display nanobody library against Alexa647-labeled CB1-PGS […]
round of selection that gave rise to CNB36. The indicated gat e (P5) contains the highly fluorescent CB1-PGS single posit ive populat ion, which was then analyzed by sequencing of individual clones.
(C) Binding of CNB36 to CB1-PGS, read out by size exclusion chromatography and SDS-PA G E . […]
(D) Assessment of binding of CNB36 to PGS alone, as in C.
(E) Analytical flow cytometry comparing binding of CNB36-expressing yeast t o Alexa647-labeled CB1-PGS (Y-axis) versus FI TC-labeled GPR55-PGS (X-axis).
(F) Final sample used for cryo-EM grid preparat ion by size excusion chromatography and […]

CB1R-5M-PGS, sequence (P21554 with tags, fused parts or gaps): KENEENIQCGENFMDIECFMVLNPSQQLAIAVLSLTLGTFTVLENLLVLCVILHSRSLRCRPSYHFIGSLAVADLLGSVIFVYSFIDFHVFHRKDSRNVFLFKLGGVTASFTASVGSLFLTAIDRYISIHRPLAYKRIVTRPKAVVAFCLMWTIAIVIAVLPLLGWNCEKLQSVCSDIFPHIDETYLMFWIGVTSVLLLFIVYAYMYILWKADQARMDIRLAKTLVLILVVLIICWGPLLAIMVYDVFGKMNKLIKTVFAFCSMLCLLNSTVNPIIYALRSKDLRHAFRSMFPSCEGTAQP

B1: CNB36: nanobody selected from a yeast display library against the CB1R-5M-PGS fusion protein (antibody, V domains shown)
VH: QVQLQESGGGLVQAGGSLRLSCAASGTIFGPDVMGWYRQAPGKERELVAGISNGANTYYADSVKGRFTISRDNAKNTVYLQMNSLKPEDTAVYYCAAEVLDYTFAYLYHAYWGQGTQVTVSS
[1]
  complex formation with CB1R-5M-PGS by size exclusion chromatography: formed a stable complex
[2]
  specificity for purified CB1R-5M-PGS over GPR55-PGS by FACS: high specificity

From publication PMC11655885, “Structural mechanism of CB1R binding to peripheral and biased inverse agonists” (Nature Communications, 2024)
